Measurements as given in the DeepSol protein solubility set.

assay: soluble on expression in E. coli; label from the status in PepcDB or PDB records

Sequence	soluble on expression in E. coli
MLLSIITVAFRNLEGIVKTHASLAHLAQAEDISFEWIVVDGGSNDGTREYLENLNGIYNLRFVSEPDNGIYDAMNKGIAMAQGKFALFLNSGDIFHQDAAYFVRKLKMQKDNVMITGDALLDFGDGHKIKRSAKPGWYIYHSLPASHQAIFFPVSGLKKWRYDLEYKVSSDYALAAKMYKAGYAFKKLNGLVSEFSMGGVSTTNNMELCADAKKVQRQILHVPGFWAELSWHLRQRTTSKTKALYNKS	not soluble
MLLSSCQSLFSPAYQSTLRPSDNPQTVEQVQKNDPRAQMGAREHPRIVASYGGEYRDAKTERLVARIAGALTAVSENPQQSYRITILNSPAINAFALPGGYLYVTRGLLALANDASEVAAVLSHEMGHVTANHGIERQRREEAEVIASRVVAEVLSSDLAGKQALARGKLRLAAFSRQQELQADVIGVRMLGEAGYDPYASPRFLDSMAAYARFSSADPENDQSLDFLSSHPNTPQRIELARRHARAFGQEGQVGDRGRDWFLDGIDGLLYGDSPQEGYVRGQTFLHGTLGIRFDVPEGFVIDNKVEAVLATGPGDMAIRFDGVADPKQTSLANYLTSGWVAGLLPETVKETQINGLEAATARASADKWDFDVTVIRVGQQIFRFLTAVPKGNTQLDSIANVLRTSFRKMTPQEIASLKPLRVRVVTVKPGETVATMAARMMGTERKLDMFRMINAMSATATLQPGQRVKIISELEHHHHHH	not soluble
MLMNNNNVYSLNNFDFLARSFARMQAEGRPVDIQAVTGNMDEEHRDWFCKRYALYCQQATQAKRLELEH	not soluble
MLNEREKILLKTLVERYIHEGQPVGSRSLAKFSGLDLSPATIRNVMTDLEEMGYVSSPHTSAGRMPTTLGYRFFVDTLLVVKSLDNEQITLLENQLHPNNPTHLMNVTSRLLSELTRFVGVVVTPKRMGGAVFRHIEFVALTEKRILLILVTPEGDVQNRIILTETAYSQSDLIEAGNFLNQHYAGCTLEEIRSGLQRELTQLRRDMTGLMNAAIEIGNDALQESSEAVVIAGEHRLFDVRDLSDNLSSLKSLFEMFERKSKLLQLMELSRQAHGVKIFIGGESDETMLEEVSVVTAPYEMEGKIVGTVGVIGPRRMAYERIIPIVDITAKLLSSNLS	not soluble
MLNETIQKEFQRKEIKYLIEADTFEQLQKEFKDYLTPDRFTHSSITNIYFDNPDFQLIKDSINHRHASEKIRMRTYDPKPTQKSQAFLEIKKKEYQGEQEIGYKYRLTSTPLSLCNYVQQGIIDNNIKQDDRANHELAILRERYKKLVPKMFIHYERFSLRGIENPKLRVTFDRNVIYRHENVNLTSGFNGYPLLKNNQIVMEIKVKNGLPAWMEKIFHKHQLIPQSFSKYTTAYLKAYGLTPEDIREEPTSIALEHHHHHH	soluble
MLNHIVMWKIKEDVEDKEKVKLGIKNGLEGLFGKIEELREIRVERFMESTSTHDVALFVKVDNEDTLKKYATNPLHVEIIKNYIKPFVYDRVCIDFFELEHHHHHH	not soluble
MLNKTNTWTPSLFRDYKNAEHDACGIVSVMEKRKIPTKENIDLCIQSLVKMNHRAGFINGEGDGIGIHIDVPKALWNEKLKSSGYNPTIVDHPHFIVGHFFLNKNENIVDLKNHIRTQLNNENFAILFESDNVINSDALGPLGKQEEPLFWQVALIAENEVVNIEQTLFSVTIKIEENEAIHVASLSRDHVVYKVLGAGDTLVAYYNDLQHPLIASTMTLGHNRYSTNTLSNFFRVQPFSILGHNGEINTIAKLRDQAEMIHVPLTAGGSDSQDLNRTLETLLVQYGYSLFEAMDILFPPIINEIKLYETHLQDLYTYIREAWGHFAQGPAGIISRYKDEAVFSVDSLGLRPVWKVEIESSYIFSSEPGVVSPTEYVAEPKPLAPGEKVGLKWNEQDELVLYEHDDYQTQVYNRFKKKVDVTNYHLHLSIPKTKEIPDACDSMQVETKQYVAFGWDREHIQLLEQMATKGVEPIRSLGHDSPLAALDTDRRNIADFIKESVAVVTNPAIDRDREVEHFSTRTILGERPSLLSDAKKPFVVEMLSPIILEGSVAQSIAQELHTITYEQLIELFNTHSSIATISATFSQAETLQCALSRISSEAITAVNDGASLLLIDDADAHLNERLWIDPHLVTAKVHQVLSENKLRRNCSLVIRSGALRSLHDIVTLHGLGADSINPYLLFATVNDGTKTPITNLYNALNKGLEKVISTIGIHELRGYGRLYSSIGLHEEIANILQITNFLGSNDLAFSLESLAEDAQMRADDYNDPKVRIRKSFHIFPRIWKAIGDVAKGNSYDDYRDKLSELEENNPIAIRHLIQTKETKHVIPTEEVSISIQNHDLPFIISSMSFGSQNEIAFRAYAEAADQLNMISLNGEGGEIKDMIGKYPHTRGQQVASGRFGVNAELLNSSNLIEIKIGQGAKPGEGGHLPGSKVTAKIAEARNATIGSDLISPSNNHDIYSIEDLAQMITEIKTANQLAKVAVKVPVVPNIGTIAVGIAKAGADFINISGFDGGTGAARIHALQHVGLPVEIGVKAAHNALLEANMRHNVEIWADGGIRSVNDALKIMLLGANRIGFGTLSMIAIGCTTCRGCHLDTCHVGIATQIESEAQAKEHGLRRFVPRELESAVAGLLHLFTTFGEELKRLTGNLGYTNLQEIVGRSDLLEQVRGKNLLNLCNLLQTIEHPSVIKTEHVLEKQFEPIHSPHSKELVGVGVEQRVMGGLESCYRVRSKLYEDTKLEPLTLKYTNGSIPGNGLGAYNSENLFIHVNGGAQDGIGKTSFGGGIYITKAKGKDGLYYNGSVGKGFGYGAQKGALYVQGNADARAGIRLSGADMIIGGRMTKPLREKEQGNIGAYSNIKGFAFEYMTNGRALVLGDPGPWICAGMTGGVVYLRHDSSLGLTEQALKRRIAKGANVTLQPISKNGVRDVNELLLDYIRVLNEHEQYEEVALLTPLLDDMQQQFFEIIPKKEQADPSISTE	not soluble
MLNQSVRFLARRANSQIRRSNLLKTGSLAAQDRGFFFGKRREPRCDLKNQSIVQADGSRKSAWLGDKPLRHESFIGILTTYAGIRRGPTVGGKEMLGKRVMKNGKLEWEWITYEQAFEISDNVSQAIRKLGIEIGDKSNIGIYSKNRPEWVLSDMAIHNFSNVSVPIYDNIPNEDMHYITNLCEIPLMFVDSEDKTTQLIKDKTYLSKSLKYIVQFDKVSDEMKAMAESNNFQLWSFDEFVELGKKHEHRPHAPPTPETLATISFTSGTTGRPKGAMLTHLNLCSTTVACEEFEHVEGELDSYLSYLPLAHVYERHCTLAHFKIGSNFHNFLNKFVEVFFFFKRISSKVTKIFRRIGFSRGDPALLVEDIQALAPRTFACVPRVLGKIYKSVMSQVQDKPVKKMILNSAIAYKLYHYKMTGKATRDTLVDKYILHKIQMILGPNIKQFLIPAAKTDNSSMRFARGAFGIEILELYGLTETSGPTTIQLVGDMLGSVGPPISCTSIKLVDIAELGYFVDENGGEVLVKGHNVTSGYYKDPKATASAFTEDGFMKTGDIGKFTPEGTLQLIDRRDNVLKLPQGEFVAPDLTESLYISSKFVQQICVHGNKEKPWLVAVVVPDPEYLASHANLEHNIEGKTYEELCKIPALAEDVLHALIKFFIWVFAIHLTPIAFSPQNGLTTPTHKNKRTAIAQFFKKQIVEMFDRIEKEEEGTELTTKIENAH	not soluble
MLNTIVLIRTDNFDKALTALADLVRYGGMKIRGTPRIIPPALSDWAFEQIVGEKPKKKVKAHVVAQIDLPASKAIGRIRDIHPPAHIIVIPVGSPVHKELLRLWGTFKELKGFHPPKEIKRLENIENEEDLELEHHHHHH	not soluble
MLPDSSVRLNKYISESGICSRREADRYIEQGNVFLNGKRATIGDQVKPGDVVKVNGQLIEPREAEDLVLIALNKPVGIVSTTEDGERDNIVDFVNHSKRVFPIGRLDKDSQGLIFLTNHGDLVNKILRAGNDHEKEYLVTVDKPITEEFIRGMSAGVPILGTVTKKCKVKKEAPFVFRITLVQGLNRQIRRMCEHFGYEVKKLERTRIMNVSLSGIPLGEWRDLTDDELIDLFKLIENSSSEVKPKAKAKPKTAGIKRPVVKMEKTAEKGGRPASNGKRFTSPGRKKKGRLEHHHHHH	soluble
MLPLEPYLTQTSAVPQMSHFMCHSPTHKPQGLLPWAPFHQASVSLYPISPWPSESVCPPTCPGGASCWFPAGNAWDRVELGFLGFGAGGVSIAVPGFPLSCGQGCCAGGWLGHGARFPAKLRAFPQVIRRGWLTINNISLMKGGSKEYWFVLTAESLSWYKDEEEKEKKYMLPLDNLKIRDVEKGFMSNKHVFAIFNTEQRNVYKDLRQIELACDSQEDVDSWKASFLRAGVYPEKDQAENEDGAQENTFSMDPQLERQVETIRNLVDSYVAIINKSIRDLMPKTIMHLMINNTKAFIHHELLAYLYSSADQSSLMEESADQAQRRDDMLRMYHALKEALNIIGDISTSTVSTPVPPPVDDTWLQSASSHSPTPQRRPVSSIHPPGRPPAVRGPTPGPPLIPVPVGAAASFSAPPIPSRPGPQSVFANSDLFPAPPQIPSRPVRIPPGIPPGVPRRPPAAPSRPTIIRPAEPSLLD	soluble
